Experimental data published in patent US20230277682A1 (priority 2022, published 2023).

B1: mAb11729 (antibody, V domains shown)
VH: QVQLVQSGAEVKKSGSSVKVSCKASGGTFSSYAISWVRQAPGQGLEWMGGIIPIFGTPSYAQKFQDRVTITTDESTSTVYMELSSLRSEDTAVYYCARQQPVYQYNMDVWGQGTTVTVSS
VL: DIQMTQSPSSLSASVGDRVTITCRASQGIRNNLGWYQQKPLKAPKRLIYAASSLQSGVPSRFSGSGSGTEFTLTISSLQPEDFATYYCLQYNNYPWTFGQGTKVEIK
B2: 11729-HC-Cterm-LLQGA-19b (conjugate)
heavy: QVQLVQSGAEVKKSGSSVKVSCKASGGTFSSYAISWVRQAPGQGLEWMGGIIPIFGTPSYAQKFQDRVTITTDESTSTVYMELSSLRSEDTAVYYCARQQPVYQYNMDVWGQGTTVTVSSLLQGA
VL: B1 VL
modifications: left off: a dimerising Fc or GST
B3: 11729-HC-Cterm-LLQGA-10b (conjugate)
heavy: B2 heavy
VL: B1 VL
modifications: left off: a dimerising Fc or GST
B4: 11729-HC-Cterm-LLQGA-19a (conjugate)
heavy: B2 heavy
VL: B1 VL
modifications: left off: a dimerising Fc or GST
B5: 11729-HC-Cterm-LLQGA-19C (conjugate)
heavy: B2 heavy
VL: B1 VL
modifications: left off: a dimerising Fc or GST

System: H1N1 A/Puerto Rico/08/1934 influenza virus
Type: cell-based

| Molecule | antiviral activity against H1N1 in vitro | Fold Increase over Parental Antibody [fold] |
| --- | --- | --- |
| B1 | displays antiviral activity against H1N1 in vitro | – |
| B2 | – | 15.76 |
| B3 | – | 6.96 |
| B4 | – | 7.75 |
| B5 | – | 28.78 |
